Values belong to the binder of their own block, whether it stands above or below them.
B2: interferon beta (wild type, glycosylated, produced in CHO) (ligand, human, UniProt P01574 22-187, looked up)
chain: MSYNLLGFLQRSSNFQCQKLLWQLNGRLEYCLKDRMNFDIPEEIKQLQQFQKEDAALTIYEMLQNIFAIFRQDSSSTGWNETIVENLLANVYHQINHLKTVLEEKLEKEDFTRGKLMSSLHLKRYYGRILHYLKAKEYSHCAWTIVRVEILRNFYFINRLTGYLRN
modifications: glycosylated (site not stated)
notes: also called IFNβ; IFN-β

Tests used:
[1] = target: B2; test: RifS, IFNAR2-EC immobilised through antibodies, 500 mM NaCl, pH 7.4
[2] = target: B2; test: RifS, IFNAR2-EC immobilised through antibodies
[3] = target: T1, wild type IFNAR2-EC (extracellular domain of human IFNAR2) (human, UniProt P48551 28-237); test: RifS, IFNAR2-EC immobilised through antibodies, 500 mM NaCl, pH 7.4
T1 construct: Expressed in E. coli, non-glycosylated; also called wt; WT protein
T1 sequence: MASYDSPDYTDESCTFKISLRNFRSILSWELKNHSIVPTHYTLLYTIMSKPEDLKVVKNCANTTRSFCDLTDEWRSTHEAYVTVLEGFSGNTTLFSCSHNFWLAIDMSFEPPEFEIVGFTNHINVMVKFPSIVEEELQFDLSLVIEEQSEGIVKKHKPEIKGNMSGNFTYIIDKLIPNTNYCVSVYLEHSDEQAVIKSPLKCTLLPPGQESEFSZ

[4] = target: B2; test: cell-based or functional assay

Kd [1]: ~0.03 nM | fold higher affinity than wild type [2]: ~100 fold
B1: IFNAR2 EC H78A/N100A mutant (receptor)
chain: MASYDSPDYTDESCTFKISLRNFRSILSWELKNHSIVPTHYTLLYTIMSKPEDLKVVKNCANTTRSFCDLTDEWRSTAEAYVTVLEGFSGNTTLFSCSHAFWLAIDMSFEPPEFEIVGFTNHINVMVKFPSIVEEELQFDLSLVIEEQSEGIVKKHKPEIKGNMSGNFTYIIDKLIPNTNYCVSVYLEHSDEQAVIKSPLKCTLLPPGQESEFSZ
notes: also called R2 H78A/N100A; MIFNAR2 EC

Binder: B2
Kd [3]: ~3 nM

IC50 (read off the curve) [4]: ~0.4 nM
B3: IFNAR2 EC H78A/N100D mutant (receptor)
chain: MASYDSPDYTDESCTFKISLRNFRSILSWELKNHSIVPTHYTLLYTIMSKPEDLKVVKNCANTTRSFCDLTDEWRSTAEAYVTVLEGFSGNTTLFSCSHDFWLAIDMSFEPPEFEIVGFTNHINVMVKFPSIVEEELQFDLSLVIEEQSEGIVKKHKPEIKGNMSGNFTYIIDKLIPNTNYCVSVYLEHSDEQAVIKSPLKCTLLPPGQESEFSZ

Reference: patent publication US20050164185A1 (YEDA RESEARCH AND DEVELOPMENT CO LTD AT WEIZMANN INSTITUTE …, published 2005)
